Assay results as given in US20180072816A1.

Target: human CXCR4 (human) (UniProt P61073)
Test: cell-based or functional assay

human CXCR4 (human), sequence (P61073 whole entry): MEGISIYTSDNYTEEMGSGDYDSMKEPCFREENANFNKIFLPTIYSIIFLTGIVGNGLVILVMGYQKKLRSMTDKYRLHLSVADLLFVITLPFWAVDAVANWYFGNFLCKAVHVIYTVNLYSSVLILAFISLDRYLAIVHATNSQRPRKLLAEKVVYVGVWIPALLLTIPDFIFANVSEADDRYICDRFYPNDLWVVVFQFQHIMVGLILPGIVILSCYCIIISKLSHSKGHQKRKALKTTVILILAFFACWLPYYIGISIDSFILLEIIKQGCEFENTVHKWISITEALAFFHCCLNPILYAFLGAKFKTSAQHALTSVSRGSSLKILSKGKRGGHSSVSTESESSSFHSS

anti-CXCR4 MAb 12G5 (antibody)
IC50 (nM) in β-Arrestin BRET assay (Antagonist mode in the presence of 100 nM SDF-1): 64 nM
